In US20050203025A1:

Experiments:
[1] = target: desmoglein (on Fsk-7.1 mouse mammary epithelial cells) (mouse); experiment: cell-based or functional assay
[2] = target: desmocollin (on Fsk-7.1 mouse mammary epithelial cells) (mouse); experiment: cell-based or functional assay

B1: H-…-OH (SEQ ID NO: 5283) (peptide)
peptide: H-LTGYALDSRG-OH
B1 showed a % (single cells + clusters <4 cells); alveolar aggregate formation of Fsk-7.1 cells, 24 hr, no desmocollin peptide [1] of 21.7%, a % (single cells + clusters <4 cells); alveolar aggregate formation of Fsk-7.1 cells, 24 hr, together with Ac-CFATC-NH2 [1] of 39.5% and a % (single cells + clusters <4 cells); alveolar aggregate formation of Fsk-7.1 cells, 24 hr, together with Ac-CYASC-NH2 [1] of 57.2%. It also gave a % (single cells + clusters <4 cells); alveolar aggregate formation of Fsk-7.1 cells, 24 hr, together with Ac-CYATC-NH2 [1] of 58.6% and a % (single cells + clusters <4 cells); alveolar aggregate formation of Fsk-7.1 cells, 24 hr, together with H-…-OH [1] of 36.5%.

B2: H-…-OH (SEQ ID NO: 5284) (peptide)
peptide: H-LTAFATTPDG-OH
Work on B2 yielded a % (single cells + clusters <4 cells); alveolar aggregate formation of Fsk-7.1 cells, 24 hr, no desmoglein peptide [2] of 28% and a % (single cells + clusters <4 cells); alveolar aggregate formation of Fsk-7.1 cells, 24 hr, together with H-…-OH [2] of 36.5%.

B3: Ac-CYATC-NH2 (SEQ ID NO: 4683) (peptide)
peptide: Ac-CYATC-NH2
modifications: also: cyclic peptide, bond of cyclisation not given here
B3 showed a % (single cells + clusters <4 cells); alveolar aggregate formation of Fsk-7.1 cells, 24 hr, no desmoglein peptide [2] of 18.2%, a % (single cells + clusters <4 cells); alveolar aggregate formation of Fsk-7.1 cells, 24 hr, together with Ac-CRALC-NH2 [2] of 19.6% and a % (single cells + clusters <4 cells); alveolar aggregate formation of Fsk-7.1 cells, 24 hr, together with H-…-OH [2] of 58.6%.

B4: Ac-CFATC-NH2 (SEQ ID NO: 5009) (peptide)
peptide: Ac-CFATC-NH2
modifications: also: cyclic peptide, bond of cyclisation not given here
B4 gave a % (single cells + clusters <4 cells); alveolar aggregate formation of Fsk-7.1 cells, 24 hr, no desmoglein peptide [2] of 13.1%, a % (single cells + clusters <4 cells); alveolar aggregate formation of Fsk-7.1 cells, 24 hr, together with Ac-CRALC-NH2 [2] of 33.6% and a % (single cells + clusters <4 cells); alveolar aggregate formation of Fsk-7.1 cells, 24 hr, together with H-…-OH [2] of 39.5%.

B5: Ac-CYASC-NH2 (SEQ ID NO: 5156) (peptide)
peptide: Ac-CYASC-NH2
modifications: also: cyclic peptide, bond of cyclisation not given here
With B5 the % (single cells + clusters <4 cells); alveolar aggregate formation of Fsk-7.1 cells, 24 hr, no desmoglein peptide [2] was 12.9%, the % (single cells + clusters <4 cells); alveolar aggregate formation of Fsk-7.1 cells, 24 hr, together with Ac-CRALC-NH2 [2] was 37.2% and the % (single cells + clusters <4 cells); alveolar aggregate formation of Fsk-7.1 cells, 24 hr, together with H-…-OH [2] was 57.2%.

B6: Ac-CRALC-NH2 (SEQ ID NO: 4236) (peptide)
peptide: Ac-CRALC-NH2
modifications: also: cyclic peptide, bond of cyclisation not given here
B6 gave a % (single cells + clusters <4 cells); alveolar aggregate formation of Fsk-7.1 cells, 24 hr, no desmocollin peptide [1] of 12.9%, a % (single cells + clusters <4 cells); alveolar aggregate formation of Fsk-7.1 cells, 24 hr, together with Ac-CFATC-NH2 [1] of 33.6% and a % (single cells + clusters <4 cells); alveolar aggregate formation of Fsk-7.1 cells, 24 hr, together with Ac-CYASC-NH2 [1] of 37.2%. For the same binder, the % (single cells + clusters <4 cells); alveolar aggregate formation of Fsk-7.1 cells, 24 hr, together with Ac-CYATC-NH2 [1] was 19.6%.
